The target in the experiment is T1, HLA-Cw*0102 on the HLA-Cw*0102-positive cell line L721.174.
T1 construct: whole, on cells
Description: MHC class I stabilisation on L721.174 cells, flow cytometry. (In general: A flow cytometer gives signals particle by particle.)

The values that follow come from patent US20180325979A1 (UNIVERSITY OF SOUTHAMPTON, published 2018).

Regarding LNPSVAATL [peptide LNPSVAATL (SEQ ID NO: 5)], the binding result was “binds”.
Next, IVDLMCHATF (also called Dengue virus peptide) [peptide IVDLMCHATF (SEQ ID NO: 1)]: “binds”.
